Laboratory results: patent US20090053196

System: FLAG-tagged UNC-45 (UNC-45^FLAG)

^mycCHN-1^ΔU-box
in vitro ubiquitylation of UNC-45, Western blot: a CHN-1 version lacking the U-box, CHN-1^ΔU-box, was not able to ubiquitylate UNC-45
